B1: BisG1-FAPα-FERL/DR4-FERR (bispecific antibody, human IgG1, kappa, lambda)
heavy 1: EVQLLESGGGLVQPGGSPRLSCEASGFTFSSYALSWVRQAPGKGLEWVSAISGSGGGRYYADSVKGRFTISRDNSKNTLFLQMNSLRAEDTAVYYCAKEGYSSSGTYWDHWGQGTLVTVSSASTKGPSVFPLAPSSKSTSGGTAALGCLVKDYFPEPVTVSWNSGALTSGVHTFPAVLQSSGLYSLSSVVTVPSSSLGTQTYICNVNHKPSNTKVDKRVEPKSCDKTHTCPPCPAPEFERGPSVFLFPPKPKDTLMISRTPEVTCVVVDVSHEDPEVKFNWYVDGVEVHNAKTKPREEQYNSTYRVVSVLTVLHQDWLNGKEYKCKVSNKALPAPIEKTISKAKGQPREPQVYTLPPSREEMTKNQVSLTCLVKGFYPSDIAVEWESNGQPENNYKTTPPVLDSDGSFLLYSKLTVDKSRWQQGNVFSCSVMHEALHNHYTQKSLSLSPG
light 1: AIQMTQSPSSVSASVGDRVTITCRASQGVSSWLAWYQQKPGRAPKLLIYVASTLQSGVPSRFSGSGSGTDFTLTINSLQPEDFATYYCQQANSFPPTFGQGTRLEMKRTVAAPSVFIFPPSDEQLKSGTASVVCLLNNFYPREAKVQWKVDNALQSGNSQESVTEQDSKDSTYSLSSTLTLSKADYEKHKVYACEVTHQGLSSPVTKSFNRGEC
heavy 2: QVQLQESGPGLVKPSGTLSLTCAVSGGSISSYSWWSWIRQPPGKGLEWIGELYHSGSTNYNPSLKSRVTISVDKSKNQFSLKLRSVTAADTAVYYCVRGVATIDYWGQGTLVTVSSASTKGPSVFPLAPSSKSTSGGTAALGCLVKDYFPEPVTVSWNSGALTSGVHTFPAVLQSSGLYSLSSVVTVPSSSLGTQTYICNVNHKPSNTKVDKRVEPKSCDKTHTCPPCPAPEFERGPSVFLFPPKPKDTLMISRTPEVTCVVVDVSHEDPEVKFNWYVDGVEVHNAKTKPREEQYNSTYRVVSVLTVLHQDWLNGKEYKCKVSNKALPAPIEKTISKAKGQPREPQVYTLPPSREEMTKNQVSLTCLVKGFYPSDIAVEWESNGQPENNYKTTPPVLDSDGSFFLYSRLTVDKSRWQQGNVFSCSVMHEALHNHYTQKSLSLSPG
light 2: QSALTQPPSASGSPGQSVTISCTGTSSDVGGYNFVSWYQQDPGKAPKLLIYEVTKRPSGVPDRFSGSKSGNTASLTVSGLQAEDEADYYCSSYAGSNNVMFGGGTKLTVLGQPKAAPSVTLFPPSSEELQANKATLVCLISDFYPGAVTVAWKADSSPVKAGVETTTPSKQSNNKYAASSYLSLTPEQWKSHRSYSCQVTHEGSTVEKTVAPTECS
notes: Human IgG1 bispecific made by controlled Fab-arm exchange of IgG1-FAPα-FERL and IgG1-DR4-FERR; monovalent for FAPα and for DR4; also called GEN1057
B2: BisG1-b12-FERL/DR4-FERR (bispecific antibody, human IgG1, kappa, lambda)
heavy 1: QVQLVQSGAEVKKPGASVKVSCQASGYRFSNFVIHWVRQAPGQRFEWMGWINPYNGNKEFSAKFQDRVTFTADTSANTAYMELRSLRSADTAVYYCARVGPYSWDDSPQDNYYMDVWGKGTTVIVSSASTKGPSVFPLAPSSKSTSGGTAALGCLVKDYFPEPVTVSWNSGALTSGVHTFPAVLQSSGLYSLSSVVTVPSSSLGTQTYICNVNHKPSNTKVDKRVEPKSCDKTHTCPPCPAPEFERGPSVFLFPPKPKDTLMISRTPEVTCVVVDVSHEDPEVKFNWYVDGVEVHNAKTKPREEQYNSTYRVVSVLTVLHQDWLNGKEYKCKVSNKALPAPIEKTISKAKGQPREPQVYTLPPSREEMTKNQVSLTCLVKGFYPSDIAVEWESNGQPENNYKTTPPVLDSDGSFLLYSKLTVDKSRWQQGNVFSCSVMHEALHNHYTQKSLSLSPG
light 1: EIVLTQSPGTLSLSPGERATFSCRSSHSIRSRRVAWYQHKPGQAPRLVIHGVSNRASGISDRFSGSGSGTDFTLTITRVEPEDFALYYCQVYGASSYTFGQGTKLERKRTVAAPSVFIFPPSDEQLKSGTASVVCLLNNFYPREAKVQWKVDNALQSGNSQESVTEQDSKDSTYSLSSTLTLSKADYEKHKVYACEVTHQGLSSPVTKSFNRGEC
heavy 2: B1 heavy 2
light 2: B1 light 2
notes: Fab-arm exchange of IgG1-b12-FERL and IgG1-DR4-FERR; also called bsIgG1-ctrl-FERLxDR4-FERR
B3: IgG1-DR4-FERR (antibody, V domains shown)
VH: QVQLQESGPGLVKPSGTLSLTCAVSGGSISSYSWWSWIRQPPGKGLEWIGELYHSGSTNYNPSLKSRVTISVDKSKNQFSLKLRSVTAADTAVYYCVRGVATIDYWGQGTLVTVSS
VL: QSALTQPPSASGSPGQSVTISCTGTSSDVGGYNFVSWYQQDPGKAPKLLIYEVTKRPSGVPDRFSGSKSGNTASLTVSGLQAEDEADYYCSSYAGSNNVMFGGGTKLTVLG
notes: Bivalent monoclonal IgG1 lambda
B4: IgG1-FAPα-FERL (antibody)
heavy: B1 heavy 1
light: B1 light 1
notes: Bivalent monoclonal IgG1 kappa
B5: BisG1-FAPα-FERL/b12-FERR (bispecific antibody, human IgG1, kappa)
heavy 1: B1 heavy 1
light 1: B1 light 1
heavy 2: B2 heavy 1 with L415F, K419R
light 2: B2 light 1

Positions count from the first letter of the chain named.

The first assay addresses T1, human DR4 (Death Receptor 4), cell surface expressed on human tumor cell lines (human, UniProt O00220 24-468).
T1 construct: also called TNFRSF10A; TRAIL-R1
T1 sequence: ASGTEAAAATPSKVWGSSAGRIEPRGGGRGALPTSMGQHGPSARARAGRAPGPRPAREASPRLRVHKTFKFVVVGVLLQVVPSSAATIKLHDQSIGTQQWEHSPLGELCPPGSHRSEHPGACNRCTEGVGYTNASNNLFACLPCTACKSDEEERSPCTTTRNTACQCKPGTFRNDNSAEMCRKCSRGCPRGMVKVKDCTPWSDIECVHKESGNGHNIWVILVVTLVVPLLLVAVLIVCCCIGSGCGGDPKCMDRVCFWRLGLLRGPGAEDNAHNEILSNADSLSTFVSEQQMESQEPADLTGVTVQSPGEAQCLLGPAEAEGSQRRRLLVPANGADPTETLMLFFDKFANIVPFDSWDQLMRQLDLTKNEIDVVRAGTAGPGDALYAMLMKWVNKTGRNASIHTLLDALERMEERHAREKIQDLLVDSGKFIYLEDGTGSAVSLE
Kind of assay: flow cytometry, PANC-1 cells, n = 1. (In flow cytometry, cells or beads pass a laser one at a time.)
With B1, a half-maximal response (EC50) required 1.8 µg/mL.

In the case of B2, the EC50 (as a rule, the concentration at which the effect is half-maximal) is 1.35 µg/mL.

Turning to B3, the EC50 was 0.68 µg/mL. Compared with the last molecule, the EC50 is about 2-fold lower.

For a further assay, the target named is T1, human DR4 (Death Receptor 4), cell …. Kind of assay: flow cytometry, PANC-1 cells, n = 2.
B1 came in with a half-maximal effective concentration (EC50) of 1.89 µg/mL.

With B2, the 50% effective concentration (EC50) was found to be 2.12 µg/mL.

The molecule B3 showed an EC50 of 0.4 µg/mL.

A further assay has as its target T2, human FAPα (Fibroblast activation protein alpha), cell surface expressed (human, UniProt Q12884 1-760).
T2 construct: Endogenous on human lung fibroblasts and CAFs
T2 sequence: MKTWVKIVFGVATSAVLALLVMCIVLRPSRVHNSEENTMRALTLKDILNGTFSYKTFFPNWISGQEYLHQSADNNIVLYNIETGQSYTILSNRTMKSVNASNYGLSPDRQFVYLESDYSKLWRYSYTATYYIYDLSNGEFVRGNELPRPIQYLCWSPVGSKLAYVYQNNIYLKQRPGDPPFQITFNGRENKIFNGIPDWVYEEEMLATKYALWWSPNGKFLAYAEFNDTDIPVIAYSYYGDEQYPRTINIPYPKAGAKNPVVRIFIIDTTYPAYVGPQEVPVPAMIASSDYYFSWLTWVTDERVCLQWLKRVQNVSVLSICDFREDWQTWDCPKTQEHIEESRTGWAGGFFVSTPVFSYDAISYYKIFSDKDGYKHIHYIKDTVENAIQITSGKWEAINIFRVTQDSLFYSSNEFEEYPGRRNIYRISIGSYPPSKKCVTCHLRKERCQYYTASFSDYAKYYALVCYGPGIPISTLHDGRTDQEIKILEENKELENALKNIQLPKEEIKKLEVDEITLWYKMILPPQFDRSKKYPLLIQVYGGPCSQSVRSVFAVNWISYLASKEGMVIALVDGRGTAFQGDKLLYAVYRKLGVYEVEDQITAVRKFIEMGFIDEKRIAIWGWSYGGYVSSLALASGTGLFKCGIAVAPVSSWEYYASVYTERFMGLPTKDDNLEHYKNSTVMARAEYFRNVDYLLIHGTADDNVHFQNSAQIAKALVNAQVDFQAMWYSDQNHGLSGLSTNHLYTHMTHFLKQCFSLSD
The experiment in a line: flow cytometry, human lung fibroblasts, n = 3. As for the experimental part: Binding of bispecific or monoclonal antibodies carrying the anti-FAPα arm derived from IgG1-FAPα-FERL (BisG1-FAPα-FERL/DR4-FERR, BisG1-FAPα-FERL/b12-FERR, and IgG1-FAPα-FERL) to cell surface expressed human FAPα was analyzed by flow cytometry using human lung fibroblasts and CAFs, which endogenously express FAPα. BisG1-b12-FERL/b12-FERR was used as negative control.
Human lung fibroblasts and CAFs (50,000 cells/well) were seeded in 96-Well round bottom plates (Greiner Bio-one, Cat #650101). Antibody dilutions were prepared using fluorescence-activated cell sorting (FACS) buffer, consisting of phosphate buffer saline (PBS, Lonza, Cat #BE17-517Q)+1% Bovine Serum Albumin (BSA, Roche, Cat #10735086001)+0.02% Sodium Azide (Bio-World, Cat #41920044-3). Plates were centrifuged, supernatant was removed, cells were resuspended in 50 μL of human Fc Block (BD, Cat #564220, diluted 1:100 in FACS buffer) and 50 μL of viability stain TO-PRO-3 Iodide (Thermo Fisher, Cat #T3605, diluted 1: 25,000 in FACS buffer), and incubated for 15 min at 4° C. Plates were washed three times with FACS buffer. Plates were centrifuged, supernatant was removed, cells were resuspended in 50 μL of antibody dilutions (concentration range 90-0.0005 μg/mL, three-fold dilution steps using FACS buffer) of BisG1-FAPα-FERL/DR4-FERR, BisG1-FAPα-FERL/b12-FERR, BisG1-b12-FERL/b12-FERR (top six concentrations only for CAFs culture) or IgG1-FAPα-FERL (top four concentrations only for CAFs culture) and incubated for 30 min at 4° C. Cells were washed three times with FACS buffer and resuspended in 50 μL of Fluorescein isothiocyanate (FITC)-labeled polyclonal antibody goat anti-mouse IgG1 (Jackson Immuno Research, Cat #109-096-097, diluted 1:100 in FACS buffer). […] Antibody binding to viable cells (TO-PRO-3 negative) was analyzed by flow cytometry on a FACSCelesta™ (BD biosciences) and data were processed using FlowJo_v10.8.1 (FlowJo LLC). Geomean fluorescence intensity, gMFI, was determined and visualized using GraphPad Prism.
B1 displayed an EC50 of 0.059 µg/mL.

B4 had a 50% effective concentration (EC50) of 0.022 µg/mL.

B5 showed a concentration for a half-maximal effect (EC50) of 0.048 µg/mL. Against the preceding molecule, the EC50 is about 2.2-fold higher.

These data come from patent US20250002610A1 (Genmab, published 2025).
